Experimental data: patent publication US20080187984A1, “Myo-inositol oxygenases” (Cargill, Incorporated, priority 2001, published 2008)

Target: T1, gulono-γ-lactone oxidase (Rattus norvegicus, UniProt P10867, I85V)
T1 construct: His tag (pET30a fusion); made in house; host or cells: E. coli Rosetta(DE3), pET30a
T1 sequence (P10867 1-440 I85V): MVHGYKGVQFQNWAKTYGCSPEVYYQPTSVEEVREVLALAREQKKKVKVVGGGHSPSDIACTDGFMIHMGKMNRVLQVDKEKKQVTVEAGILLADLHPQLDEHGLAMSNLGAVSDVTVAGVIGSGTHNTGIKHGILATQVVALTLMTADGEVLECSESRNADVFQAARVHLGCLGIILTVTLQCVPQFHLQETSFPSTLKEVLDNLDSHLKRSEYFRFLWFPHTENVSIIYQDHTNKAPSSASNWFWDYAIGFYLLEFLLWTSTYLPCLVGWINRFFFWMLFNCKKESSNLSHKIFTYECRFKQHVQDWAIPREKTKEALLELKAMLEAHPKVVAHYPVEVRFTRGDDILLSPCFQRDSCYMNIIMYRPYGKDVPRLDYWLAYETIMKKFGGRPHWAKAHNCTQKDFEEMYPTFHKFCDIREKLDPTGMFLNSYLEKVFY
Test: GLO assay, ascorbic acid from L-gulono-γ-lactone
Type: biochemical
Details: His-Bind purified from E. coli; 2.5 mM L-gulono-γ-lactone
Protocol: GLO activity was assayed according to the procedure described by Nishikimi (Methods in Enzymology, 62:24-30 (1979)). The assay mixture contained, in 1 mL, 50 mM potassium phosphate buffer, pH 7.5, 2.5 mM L-gulono-γ-lactone, 1 mM EDTA, and enzyme. The reaction was initiated by the addition of either substrate or enzyme, and the mixture was incubated with shaking in air for 15 minutes at 37° C. The reaction was stopped by the addition of 0.1 mL 50% trichloroacetic acid, and the precipitated protein was removed by centrifugation. The product ascorbic acid was detected by the method described in Example 9. Briefly, 0.956 mL 2,2′-dipyridyl reagent was added to 0.15 mL of the supernatant solution, and the reaction mixture was incubated at 25° C. for 15 minutes. After 15 minutes, the sample was centrifuged to remove any precipitate, and the absorbance was read at 525 nm. The 2,2′-dipyridyl reagent contained 0.056 mL ortho-phosphoric acid (85%), 0.75 mL 0.5% 2,2′-dipyridyl (prepared in hot H2O), and 0.15 mL 1% FeCl3 (in H2O). Standards of ascorbic acid (1.0 μg to 10 μg) were run in parallel with the biological samples for a standard curve. One unit is defined as the quantity that catalyzes the formation of 1 nmol of L-ascorbic acid in 1 minute under the conditions described above. Specific activity is expressed as units per mg of protein ([…]/min/mg).

B1: GLO: gulono-γ-lactone oxidase, rat glo expressed from pET30a in E. coli Rosetta(DE3), His-Bind purified (protein, UniProt P10867 2-440, looked up)
L-gulonolactone oxidase: VHGYKGVQFQNWAKTYGCSPEVYYQPTSVEEVREVLALAREQKKKVKVVGGGHSPSDIACTDGFMIHMGKMNRVLQVDKEKKQITVEAGILLADLHPQLDEHGLAMSNLGAVSDVTVAGVIGSGTHNTGIKHGILATQVVALTLMTADGEVLECSESRNADVFQAARVHLGCLGIILTVTLQCVPQFHLQETSFPSTLKEVLDNLDSHLKRSEYFRFLWFPHTENVSIIYQDHTNKAPSSASNWFWDYAIGFYLLEFLLWTSTYLPCLVGWINRFFFWMLFNCKKESSNLSHKIFTYECRFKQHVQDWAIPREKTKEALLELKAMLEAHPKVVAHYPVEVRFTRGDDILLSPCFQRDSCYMNIIMYRPYGKDVPRLDYWLAYETIMKKFGGRPHWAKAHNCTQKDFEEMYPTFHKFCDIREKLDPTGMFLNSYLEKVFY
modifications: His tag
Specific Activity (purified protein): 0.926 nmol/min/mg
